Patent US20240254222A1 (Bayer, published 2024)
Numbering of substitutions follows the chain as printed.

T1: Rat Semaphorin3A-Sema Domain, TPP-19120 (rat, UniProt Q63548 21-569)
T1 construct: produced inhouse
T1 sequence: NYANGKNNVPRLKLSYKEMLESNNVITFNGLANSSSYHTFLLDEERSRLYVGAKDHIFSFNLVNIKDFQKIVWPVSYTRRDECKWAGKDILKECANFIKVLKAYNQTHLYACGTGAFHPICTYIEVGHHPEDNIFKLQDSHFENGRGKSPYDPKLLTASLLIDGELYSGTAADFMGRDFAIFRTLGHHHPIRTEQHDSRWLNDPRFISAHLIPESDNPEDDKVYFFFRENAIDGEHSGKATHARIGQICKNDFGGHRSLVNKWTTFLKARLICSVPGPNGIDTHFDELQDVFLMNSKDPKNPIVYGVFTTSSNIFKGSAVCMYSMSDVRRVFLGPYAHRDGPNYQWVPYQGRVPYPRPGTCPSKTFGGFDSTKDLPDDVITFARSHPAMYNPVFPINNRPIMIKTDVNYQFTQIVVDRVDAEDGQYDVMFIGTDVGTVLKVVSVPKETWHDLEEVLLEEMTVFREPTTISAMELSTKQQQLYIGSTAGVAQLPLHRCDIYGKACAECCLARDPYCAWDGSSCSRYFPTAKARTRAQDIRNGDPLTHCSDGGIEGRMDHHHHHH

T2: Mouse Semaphorin3A-Sema Domain, TPP-19069 (mouse, UniProt O08665 21-569)
T2 construct: produced inhouse
T2 sequence: T1 sequence with K102E, V455I

T3: Pig Semaphorin3A-Sema Domain, TPP-20176 (pig, UniProt Q63548 21-569 (rat entry))
T3 construct: produced inhouse
T3 chain: T1 sequence with A3Q, V126I, Q138E, S237T, I303V, V444I, I483V, T486A

B1: TPP-15374 (antibody, human IgG1, lambda, V domains shown)
VH: EVQLLESGGGLVQPGGSLRLSCAASGFTFSSYEMNWVRQAPGKGLEWVSGISWNSGSIGYADSVKGRFTISRDNSKNTLYLQMNSLRAEDTAVYYCARSGYSSSWFDPDFDYWGQGTLVTVSS
VL: QSVLTQPPSASGTPGQRVTISCTGSSSNIGAGYDVHWYQQLPGTAPKLLIYGNSNRPSGVPDRFSGSKSGTSASLAISGLRSEDEADYYCSSYAGSNPYVVFGGGTKLTVLG
notes: human IgG1; also called IgG1, hit from panning; parental mAb
B2: TPP-17755 (antibody, human IgG1, lambda, V domains shown)
VH: EVQLLESGGGLVQTGGSLRLSCAASGFTFSDYAMSWVRQAPGKGLEWVSWIYYDSGSKYYADSVKGRFTISRDNSKNTLYLQMNSLRAEDTAVYYCAKLNGDFDYWGQGTLVTVSS
VL: QSVLTQPPSASGTPGQRVTISCSGSSSNIGNNDVSWYQQLPGTAPKLLIYADSHRPSGVPDRFSGSKSGTSASLAISGLRSEDEADYYCGAWDSSLSGYVFGGGTKLTVLG
notes: also called Samsung; Samsung Prior Art F11
B3: TPP-30788 (antibody, human IgG1, kappa, V domains shown)
VH: EVQLVESGGGLVQPGGSLRLSCAASGFTFSSYYMSWVRQAPGKGLEWVSTIIKSGGYAYYPDSVKDRFTISRDNSKNTLYLQMSSLRAEDTAVYYCVRGGQGAMDYWGQGTTVTVSS
VL: EIVLTQSPATLSLSPGERATLSCRASQSIGDYLHWYQQKPGQAPRLLIKYASQSISGIPARFSGSGSGTDFTLTITSLEPEDFAVYYCQQGYSFPYTFGGGTKLEIKR
notes: prior art, WO 2020/225400; also called BI clone I; Böhringer (BI) Clone I
B4: TPP-30789 (antibody, human IgG1, kappa, V domains shown)
VH: B3 VH with T28P
VL: B3 VL
notes: prior art, WO 2020/225400; also called BI clone II; Böhringer (BI) Clone II
B5: TPP-30790 (antibody, human IgG1, kappa, V domains shown)
VH: B3 VH with P14L, S84N, R98K
VL: B3 VL with K49Y, T76S
notes: prior art, WO 2020/225400; also called BI clone III; Böhringer (BI) Clone III
B6: TPP-30791 (antibody, human IgG1, kappa, V domains shown)
VH: B3 VH with V12L, P14L, Y80N, S84N, R98K
VL: B3 VL with T76S
notes: prior art, WO 2020/225400; also called BI clone IV; Böhringer (BI) Clone IV
B7: TPP-11489 (antibody, human IgG1, lambda)
heavy: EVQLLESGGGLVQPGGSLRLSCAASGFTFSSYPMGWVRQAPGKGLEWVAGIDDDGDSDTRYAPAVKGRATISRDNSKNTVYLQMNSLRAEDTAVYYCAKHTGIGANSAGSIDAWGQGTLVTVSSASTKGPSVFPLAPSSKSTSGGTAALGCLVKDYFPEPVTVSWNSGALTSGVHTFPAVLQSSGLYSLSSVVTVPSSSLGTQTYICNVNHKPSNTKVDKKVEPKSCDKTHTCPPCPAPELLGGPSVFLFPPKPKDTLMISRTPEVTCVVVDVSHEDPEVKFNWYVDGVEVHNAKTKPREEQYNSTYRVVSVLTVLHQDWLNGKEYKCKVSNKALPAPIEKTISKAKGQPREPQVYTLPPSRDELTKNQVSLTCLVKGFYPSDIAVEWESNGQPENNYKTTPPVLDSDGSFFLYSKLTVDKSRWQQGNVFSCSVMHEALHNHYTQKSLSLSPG
light: SYELTQPPSVSVSPGQTARITCSGGGSYTGSYYYGWYQQKPGQAPVTVIYYNNKRPSDIPERFSGSLSGTTNTLTISGVQAEDEADYYCGSADNSGDAFGTGTKVTVLGQPKAAPSVTLFPPSSEELQANKATLVCLISDFYPGAVTVAWKADSSPVKAGVETTTPSKQSNNKYAASSYLSLTPEQWKSHRSYSCQVTHEGSTVEKTVAPTECS
notes: human IgG1; also called Chiome; Chiome Prior Art (hIgG1)
B8: TPP-23337 (antibody, human IgG4 S228P, lambda, V domains shown)
VH: EVQLLESGGGLVQPGGSLRLSCAASGFTFSSYAMSWVRQAPGKGLEWVSAIGYGGDTYYADSVKGRFTISRDNSKNTLYLQMNSLRAEDTAVYYCARRDDYTSRDAFDYWGQGTLVTVSS
VL: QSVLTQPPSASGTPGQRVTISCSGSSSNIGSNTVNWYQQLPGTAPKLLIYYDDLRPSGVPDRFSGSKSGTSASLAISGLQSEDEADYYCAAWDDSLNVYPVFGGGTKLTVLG
B9: TPP-15370 (antibody, human IgG1, lambda, V domains shown)
VH: B8 VH with A33G, S35H, Y53T, K64M, Y109V
VL: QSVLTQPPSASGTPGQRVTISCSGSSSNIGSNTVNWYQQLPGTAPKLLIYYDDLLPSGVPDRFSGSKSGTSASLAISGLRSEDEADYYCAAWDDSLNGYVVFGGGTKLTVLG
notes: as for B1
B10: TPP-23334 (antibody, human IgG4 S228P, lambda, V domains shown)
VH: B8 VH
VL: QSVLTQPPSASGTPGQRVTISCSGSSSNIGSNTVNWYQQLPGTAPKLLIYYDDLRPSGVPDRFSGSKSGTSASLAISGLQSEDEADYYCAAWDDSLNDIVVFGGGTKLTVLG
B11: TPP-23298 (antibody, human IgG4 S228P, lambda, V domains shown)
VH: B8 VH with S30Y, Y53T
VL: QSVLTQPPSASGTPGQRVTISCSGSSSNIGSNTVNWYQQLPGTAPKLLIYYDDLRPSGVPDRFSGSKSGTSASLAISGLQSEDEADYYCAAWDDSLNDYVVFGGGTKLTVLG
B12: TPP-23374 (antibody, human IgG4 S228P, lambda, V domains shown)
VH: B8 VH with S30Y
VL: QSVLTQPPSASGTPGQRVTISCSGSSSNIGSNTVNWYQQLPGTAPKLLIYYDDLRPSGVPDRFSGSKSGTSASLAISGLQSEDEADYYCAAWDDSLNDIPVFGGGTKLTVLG
B13: TPP-30792 (antibody, human IgG1, lambda, V domains shown)
V domain 1: EVQLLESGGGLVQPGGSLRLSCAASGFTFRSYAVHWVRQAPGKGLEWVSSTEGSGVGTSYTDSVKGRFTISRDNSKNTLYLQMNSLRAEDTAVYYCARMLGGGNPLDYLDYWGQGTLVTVSS
V domain 2: QSVLTQPPSASGTPGQRVTISCSGSSSNLGEGYDVHWYQQLPGKAPKLLIYYSDFRPSGVSDRFSGSKSGTSASLAISGLQSEDEADYYCAAWDDSLSSQVFGGGTQVTVLG
notes: IgG1; prior art, WO 2020/261281; also called 3H4 Univ Ramot; 3H4 (Ramot) Clon I
B14: TPP-23340 (antibody, human IgG4 S228P, lambda, V domains shown)
VH: B8 VH
VL: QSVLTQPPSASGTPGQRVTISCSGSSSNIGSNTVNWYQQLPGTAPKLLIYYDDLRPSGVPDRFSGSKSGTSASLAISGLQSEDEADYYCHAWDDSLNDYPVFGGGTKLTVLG
B15: TPP-23341 (antibody, human IgG4 S228P, lambda, V domains shown)
VH: B8 VH
VL: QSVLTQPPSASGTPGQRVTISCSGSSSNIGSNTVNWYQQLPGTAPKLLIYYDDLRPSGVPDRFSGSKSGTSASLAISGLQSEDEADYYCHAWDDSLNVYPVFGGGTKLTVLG
B16: TPP-23346 (antibody, human IgG4 S228P, lambda, V domains shown)
VH: B8 VH with S30Y, S35L, Y53T
VL: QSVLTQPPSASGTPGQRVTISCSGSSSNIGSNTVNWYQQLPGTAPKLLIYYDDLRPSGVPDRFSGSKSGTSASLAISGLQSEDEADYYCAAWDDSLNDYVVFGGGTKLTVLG
B17: TPP-23347 (antibody, human IgG4 S228P, lambda, V domains shown)
VH: B8 VH with S30Y, S35L, Y53T
VL: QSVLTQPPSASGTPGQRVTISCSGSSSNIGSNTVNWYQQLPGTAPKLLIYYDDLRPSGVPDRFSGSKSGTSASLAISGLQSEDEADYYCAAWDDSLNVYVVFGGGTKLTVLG
B18: TPP-23338 (antibody, human IgG4 S228P, lambda, V domains shown)
VH: B8 VH
VL: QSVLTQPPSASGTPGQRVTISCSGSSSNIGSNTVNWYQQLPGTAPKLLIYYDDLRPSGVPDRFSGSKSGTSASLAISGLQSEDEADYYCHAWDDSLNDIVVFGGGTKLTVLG
B19: TPP-23373 (antibody, human IgG4 S228P, lambda, V domains shown)
VH: B8 VH with S30Y
VL: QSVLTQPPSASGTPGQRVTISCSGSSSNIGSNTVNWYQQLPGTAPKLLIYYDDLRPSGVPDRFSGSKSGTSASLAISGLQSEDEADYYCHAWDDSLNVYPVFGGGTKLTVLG
B20: TPP-23375 (antibody, human IgG4 S228P, lambda, V domains shown)
VH: B8 VH with S30Y
VL: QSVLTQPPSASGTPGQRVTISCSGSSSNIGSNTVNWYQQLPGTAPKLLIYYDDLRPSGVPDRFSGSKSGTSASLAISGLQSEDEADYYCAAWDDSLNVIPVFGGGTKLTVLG
B21: TPP-23345 (antibody, human IgG4 S228P, lambda, V domains shown)
VH: B8 VH
VL: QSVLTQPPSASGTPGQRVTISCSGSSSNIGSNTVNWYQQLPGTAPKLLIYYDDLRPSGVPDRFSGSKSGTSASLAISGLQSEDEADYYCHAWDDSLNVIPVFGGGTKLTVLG

target: T1, Rat Semaphorin3A-Sema Domain, TPP-19120; assay: SPR, captured antibody, Sema3A domain analyte
In short: (§1)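 Kinetics fitted to a 1:1 Langmuir model after double referencing; glycine pH 2.0 regeneration. Sema3A domain analytes (several species) ran at […]-3.125 nM multi-cycle or single 100 nM; Fc-tagged Sema3A at 1.56-200 nM over Fab-captured antibody, otherwise Fc capture. Buffer HBS P+ plus 300 mM NaCl, CaCl₂, MgCl₂, BSA, 25° C.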

Row | Kd [nM] | binding result | Binder
1 | 9.8 |  | B1
2 | 5.4 |  | B2
3 | 0.026 |  | B3
4 | 0.026 |  | B4
5 | 0.022 |  | B5
6 | 0.017 |  | B6
7 | 33 |  | B7
8 | 0.11 |  | B8
9 | 14 |  | B9
10 | 0.056 |  | B10
11 | 0.03 |  | B11
12 | 0.0033 |  | B12
13 |  | no binding | B13

target: T2, Mouse Semaphorin3A-Sema Domain, …; assay: SPR, captured antibody, Sema3A domain analyte
In short: as §1

Row | Kd [nM] | binding result | Binder
14 | 8.3 |  | B1
15 | 3.9 |  | B2
16 | 0.043 |  | B3
17 | 0.042 |  | B4
18 | 0.04 |  | B5
19 | 0.028 |  | B6
20 | 160 |  | B7
21 | 0.05 |  | B8
22 | 7.2 |  | B9
23 | 0.059 |  | B14
24 | 0.092 |  | B15
25 | 0.062 |  | B10
26 | 0.064 |  | B16
27 | 0.074 |  | B11
28 | 0.055 |  | B17
29 | 0.016 |  | B12
30 | 0.045 |  | B18
31 | 0.083 |  | B19
32 | 0.042 |  | B20
33 | 0.063 |  | B21
34 |  | no binding | B13

Target: T3, Pig Semaphorin3A-Sema Domain, TPP-20176
Assay: SPR, captured antibody, Sema3A domain analyte
In short: as §1

Row | Kd [nM] | binding result | Binder
35 | 7.2 |  | B1
36 | 4 |  | B2
37 | 0.038 |  | B3
38 | 0.039 |  | B4
39 | 0.036 |  | B5
40 | 0.029 |  | B6
41 | 100 |  | B7
42 | 0.011 |  | B8
43 | 9 |  | B9
44 | 0.062 |  | B14
45 | 0.086 |  | B15
46 | 0.014 |  | B10
47 | 0.058 |  | B16
48 | 0.067 |  | B11
49 | 0.053 |  | B17
50 | < 0.003 |  | B12
51 | 0.046 |  | B18
52 | 0.078 |  | B19
53 | 0.047 |  | B20
54 | 0.055 |  | B21
55 |  | no binding | B13

target: Human Semaphorin3A-Fc (R&D Systems), TPP-13211 (human); assay: cell-based or functional assay
Sequence (chain, as listed by the source limits assumed): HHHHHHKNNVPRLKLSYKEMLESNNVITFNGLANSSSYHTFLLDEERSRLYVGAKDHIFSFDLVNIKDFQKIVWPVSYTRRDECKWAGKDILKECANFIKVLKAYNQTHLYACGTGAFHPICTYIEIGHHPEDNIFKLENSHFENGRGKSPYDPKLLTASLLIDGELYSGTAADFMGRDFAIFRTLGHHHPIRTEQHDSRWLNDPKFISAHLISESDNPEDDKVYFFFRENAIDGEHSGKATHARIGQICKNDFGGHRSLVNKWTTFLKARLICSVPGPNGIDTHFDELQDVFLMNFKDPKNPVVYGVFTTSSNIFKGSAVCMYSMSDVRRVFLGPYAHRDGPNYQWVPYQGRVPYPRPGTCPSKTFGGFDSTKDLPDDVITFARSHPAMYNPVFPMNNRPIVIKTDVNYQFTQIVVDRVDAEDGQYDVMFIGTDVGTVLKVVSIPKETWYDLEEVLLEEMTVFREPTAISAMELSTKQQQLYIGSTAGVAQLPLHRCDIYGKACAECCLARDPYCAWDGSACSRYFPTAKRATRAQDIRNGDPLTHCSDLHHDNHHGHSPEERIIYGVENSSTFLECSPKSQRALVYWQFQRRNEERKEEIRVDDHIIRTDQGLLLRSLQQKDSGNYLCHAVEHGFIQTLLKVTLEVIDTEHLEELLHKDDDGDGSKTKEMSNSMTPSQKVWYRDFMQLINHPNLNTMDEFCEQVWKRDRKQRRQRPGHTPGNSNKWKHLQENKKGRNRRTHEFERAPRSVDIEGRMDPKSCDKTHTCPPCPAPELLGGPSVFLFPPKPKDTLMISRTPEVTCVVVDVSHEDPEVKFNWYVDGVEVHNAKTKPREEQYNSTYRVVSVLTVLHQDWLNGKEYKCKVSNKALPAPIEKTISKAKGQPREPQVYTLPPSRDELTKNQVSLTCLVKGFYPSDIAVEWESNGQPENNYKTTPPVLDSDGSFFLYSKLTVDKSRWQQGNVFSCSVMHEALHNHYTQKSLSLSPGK

Row | EC50 [nM], MCM assay [nM] | Binder
56 | 5.07 | B1
57 | 11.3 | B2
58 | 1.43 | B3
59 | 0.33 | B8
60 | 4.13 | B9
61 | 0.87 | B14
62 | 0.9 | B15
63 | 0.67 | B10
64 | 1.27 | B16
65 | 0.4 | B11
66 | 0.67 | B17
67 | 0.3 | B12
68 | 0.6 | B18
69 | 0.63 | B19
70 | 1.03 | B20
71 | 0.93 | B21
